Values joined by “and” are separate entries in the source; they are usually repeats but may differ in a detail not shown here. Equal entries are not always repeated.
Conditions: Saccharomyces cerevisiae (strain ATCC 204508 / S288c), pH 7, 25 °C, GdnHCl, CD, phosphate 0.1 M, reversible: yes

Chain of Cytochrome c isoform 1 H32Y, P00044 (P00044 whole entry H32Y, canonical isoform): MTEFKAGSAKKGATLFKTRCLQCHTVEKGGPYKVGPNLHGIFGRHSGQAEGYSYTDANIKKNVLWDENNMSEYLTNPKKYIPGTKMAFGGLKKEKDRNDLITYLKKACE
Chain of Cytochrome c isoform 1 H39Y, P00044 (P00044 whole entry H39Y, canonical isoform): as the sequence (P00044 whole entry H32Y, canonical isoform) above, with Y32H, H39Y counted along it
Chain of Cytochrome c isoform 1 wild type, P00044 (P00044 whole entry, canonical isoform): as the sequence (P00044 whole entry H32Y, canonical isoform) above, with Y32H counted along it

Substance	ddG of mutation (higher = less stable) (structure 1YCC)	denaturant m value (structure 1YCC)	denaturant midpoint (higher = more stable) (structure 1YCC)	unfolding free energy (structure 1YCC)	denaturant m value	denaturant midpoint (higher = more stable) [M]	unfolding free energy
Cytochrome c isoform 1 H39Y, P00044	0.6 kcal/mol	2.87 kcal/mol/M	1.6 M	4.71 kcal/mol			
Cytochrome c isoform 1 H32Y, P00044	1.82 kcal/mol and 2.1 kcal/mol	2.41 kcal/mol/M and 2.39 kcal/mol/M	1.4 M and 1.1 M	3.54 kcal/mol and 3.2 kcal/mol			
Cytochrome c isoform 1 wild type, P00044					2.96 kcal/mol/M and 2.94 kcal/mol/M	1.8	5.35 kcal/mol and 5.31 kcal/mol

— FireProtDB (doi:10.1021/bi034132r)
